Laboratory results published in PMC2606041 (Structure (London, England : 1993), 2008).

B1: AbhN (N-terminal DNA-binding domain of Abh, residues 1-54) (domain or fragment, Bacillus subtilis, UniProt P39758 1-54, looked up)
chain: MKSIGVVRKVDELGRIVMPIELRRALDIAIKDSIEFFVDGDKIILKKYKPHGVC
B2: SpoVTN (N-terminal DNA-binding domain of SpoVT, residues 1-55) (domain or fragment, Bacillus subtilis, UniProt P37554 1-55, looked up)
chain: MKATGIVRRIDDLGRVVIPKEIRRTLRIREGDPLEIFVDRDGEVILKKYSPISEL

Assays:
NMR solution structure = target: the molecule itself; assay: NMR solution structure
SEC = target: the molecule itself; assay: SEC

Protein	binding result (NMR solution structure)	stoichiometry N (SEC)
B1	binds	
B2		2
